From US20250152742A1, “COMPOSITIONS AND METHODS FOR NEUROLOGICAL DISEASES” (Trames Bio, Inc., priority 2022, published 2025)

Tested on: engineered chimeric receptor SEQ ID NO: 33 and its mutants (human α7-nAChR ligand binding domain / human GlyRα1 ion pore domain) in Lenti-X 293T cells
Test: YFP fluorescence quenching anion reporter plate reader assay (percent quench, EC50)
Assay type: cell-based
Details: for YFP fluorescence quenching using CNL001 (percent quench): receptor named in row; for YFP fluorescence quenching using Facinicline, 30 nM fac: ligand Facinicline 30 nM; for YFP fluorescence quenching using Facinicline, 300 nM fac: ligand Facinicline 300 nM; for YFP fluorescence quenching using Facinicline, 30 uM fac: ligand Facinicline 30 uM; for YFP fluorescence quenching using TC-6987, 1 uM tc6987: ligand TC-6987 1 uM; for YFP fluorescence quenching using TC-6987, 10 uM tc6987: ligand TC-6987 10 uM; for YFP fluorescence quenching using TC-6987, 500 uM tc6987: ligand TC-6987 500 uM
Procedure, shortened: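 Percent quench compares mean YFP signal over the final 10 s with the 15 s baseline before ligand, added in iodide-containing extracellular solution (pH 7.2). Cells were LX293T carrying a YFP anion reporter, transiently transfected with the channel construct; plates were preincubated 30 min at 37 °C.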

[1] = 1 nM CNL001, first column so headed
[2] = 1 nM CNL001, second column so headed
[3] = 10 nM CNL001, first column so headed
[4] = 10 nM CNL001, second column so headed
[5] = 50 nM CNL001, first column so headed
[6] = 50 nM CNL001, second column so headed
[7] = 100 nM CNL001, first column so headed
[8] = 100 nM CNL001, second column so headed
[9] = 1 uM CNL001, first column so headed
[10] = 1 uM CNL001, second column so headed

Molecule | YFP fluorescence quenching using CNL001 (percent quench) [1] [%] | YFP fluorescence quenching using CNL001 (percent quench) [2] [%] | YFP fluorescence quenching using CNL001 (percent quench) [3] [%] | YFP fluorescence quenching using CNL001 (percent quench) [4] [%] | YFP fluorescence quenching using CNL001 (percent quench) [5] [%] | YFP fluorescence quenching using CNL001 (percent quench) [6] [%] | YFP fluorescence quenching using ABT-126 (percent quench) (50 nM abt (ABT-126)) [%] | YFP fluorescence quenching using CNL001 (percent quench) [7] [%] | YFP fluorescence quenching using CNL001 (percent quench) [8] [%] | YFP fluorescence quenching (percent quench) (100 nM CNL002) [%] | YFP fluorescence quenching using ABT-126 (percent quench) (100 nM abt (ABT-126)) [%] | YFP fluorescence quenching using AZD-0328 (percent quench) (100 nM azd0328) [%] | YFP fluorescence quenching using ABT-126 (percent quench) (300 nM abt (ABT-126)) [%] | YFP fluorescence quenching using AZD-0328 (percent quench) (300 nM azd0328) [%] | YFP fluorescence quenching using CNL001 (percent quench) [9] [%] | YFP fluorescence quenching using CNL001 (percent quench) [10] [%] | YFP fluorescence quenching (percent quench) (1 uM CNL002) [%] | YFP fluorescence quenching using ABT-126 (percent quench) (1 uM abt (ABT-126)) [%] | YFP fluorescence quenching (percent quench) (10 uM ach (acetylcholine)) [%] | YFP fluorescence quenching (percent quench) (30 uM CNL002) [%] | other results
CODA535: engineered receptor: L131T, S172D in SEQ ID NO: 33 (protein, synthetic sequence of chimeric LGIC) MRCSPGGVWLALAASLLHVSLQGEFQRKLYKELVKNYNPLERPVANDSQPLTVYFSLSLLQIMDVDEKNQVLTTNIWLQMSWTDHYLQWNVSEYPGVKTVRFPDGQIWKPDILLYNSADERFDATFHTNVTVNSSGHCQYLPPGIFKSSCPMDLKNFPMDVQTCKLKFGSWDYGGWSLDLQMQEADISGYIPNGEWDLVGIPGKRSERFYECCKEPYPDVTFTVTMRRRMGYYLIQMYIPSLLIVILSWISFWINMDAAPARVGLGITTVLTMTTQSSGSRASLPKVSYVKAIDIWMAVCLLFVFSALLEYAAVNFVSRQHKELLRFRRKRRHHKSPMLNLFQEDEAGEGRFNFSAYGMGPACLQAKDGISVKGANNSNTTNPPPAPSKSPEEMRKLFIQRAKKIDKISRIGFPMAFLIFNMFYWIIYKIVRREDVHNQ | 8.736 | 24.572 | 60.552 | 63.09 | 73.242 | 73.889 | −11.09 | 76.147 | 76.21 | 1.23 | −10.37 | −7.02 | −4 | −0.48 | 78.988 | 78.818 | 35.77 | 4.05 | −12.24 | 68.29 | YFP fluorescence quenching using TC-6683 (percent quench) (30 nM TC-6683): −29.362%; YFP fluorescence quenching using TC-6683 (percent quench) (300 nM TC-6683): −28.954%; YFP fluorescence quenching using TC-6683 (percent quench) (3 uM TC-6683): −23.708%; YFP fluorescence quenching using TC-6683 (percent quench) (30 uM TC-6683): −23.431%; YFP fluorescence quenching using AZD-0328 (percent quench) (30 uM azd0328): 70.16%; YFP fluorescence quenching using TC-6683 (percent quench) (100 uM TC-6683): −18.324%; YFP fluorescence quenching (percent quench) (100 uM ach (acetylcholine)): −26.23%; YFP fluorescence quenching (percent quench) (1 mM ach (acetylcholine)): −1.16%; YFP fluorescence quenching (percent quench) (3 mM ach (acetylcholine)): 2.97%; YFP fluorescence quenching using Facinicline, 30 nM fac: −21.36; YFP fluorescence quenching using Facinicline, 300 nM fac: 4.17; YFP fluorescence quenching using Facinicline, 30 uM fac: 65.94; YFP fluorescence quenching using TC-6987, 1 uM tc6987: −21.8; YFP fluorescence quenching using TC-6987, 10 uM tc6987: −27.08; YFP fluorescence quenching using TC-6987, 500 uM tc6987: −21.56
CODA805: engineered receptor: Y115D, S170T in SEQ ID NO: 33 (protein, synthetic sequence of chimeric LGIC) MRCSPGGVWLALAASLLHVSLQGEFQRKLYKELVKNYNPLERPVANDSQPLTVYFSLSLLQIMDVDEKNQVLTTNIWLQMSWTDHYLQWNVSEYPGVKTVRFPDGQIWKPDILLDNSADERFDATFHTNVLVNSSGHCQYLPPGIFKSSCPMDLKNFPMDVQTCKLKFGTWSYGGWSLDLQMQEADISGYIPNGEWDLVGIPGKRSERFYECCKEPYPDVTFTVTMRRRMGYYLIQMYIPSLLIVILSWISFWINMDAAPARVGLGITTVLTMTTQSSGSRASLPKVSYVKAIDIWMAVCLLFVFSALLEYAAVNFVSRQHKELLRFRRKRRHHKSPMLNLFQEDEAGEGRFNFSAYGMGPACLQAKDGISVKGANNSNTTNPPPAPSKSPEEMRKLFIQRAKKIDKISRIGFPMAFLIFNMFYWIIYKIVRREDVHNQ | −10.729 | −15.278 | −20.403 | −14.905 | −14.303 | −15.741 | −11.83 | −12.637 | −10.606 | −18.17 | −11.5 | −0.71 | −8.01 | −1.73 | −13.535 | −11.335 | −15.2 | −9.34 | −0.46 | −14 | YFP fluorescence quenching using TC-5619/Bradanicline (percent quench) (1 nM brd (TC-5619/Bradanicline)): −9.78%; YFP fluorescence quenching using TC-5619/Bradanicline (percent quench) (3 nM brd (TC-5619/Bradanicline)): −12.06%; YFP fluorescence quenching using TC-5619/Bradanicline (percent quench) (10 nM brd (TC-5619/Bradanicline)): −9.02%; YFP fluorescence quenching using TC-5619/Bradanicline (percent quench) (30 nM brd (TC-5619/Bradanicline)): −16.3%; YFP fluorescence quenching using TC-5619/Bradanicline (percent quench) (100 nM brd (TC-5619/Bradanicline)): −7.44%; YFP fluorescence quenching using TC-5619/Bradanicline (percent quench) (300 nM brd (TC-5619/Bradanicline)): −10.93%; YFP fluorescence quenching using TC-5619/Bradanicline (percent quench) (1 uM brd (TC-5619/Bradanicline)): −4.55%; YFP fluorescence quenching using AZD-0328 (percent quench) (30 uM azd0328): 47.39%; YFP fluorescence quenching (percent quench) (100 uM ach (acetylcholine)): −4.93%; YFP fluorescence quenching (percent quench) (1 mM ach (acetylcholine)): −11.18%; YFP fluorescence quenching (percent quench) (3 mM ach (acetylcholine)): −3.53%; YFP fluorescence quenching using Facinicline, 30 nM fac: 38.08; YFP fluorescence quenching using Facinicline, 100 nM fac (ligand Facinicline 100 nM): −14.37; YFP fluorescence quenching using Facinicline, 300 nM fac: 19.41; YFP fluorescence quenching using Facinicline, 10 uM fac (ligand Facinicline 10 uM): 67.33; YFP fluorescence quenching using Facinicline, 30 uM fac: 79.67; YFP fluorescence quenching using TC-6987, 1 uM tc6987: 31.9; YFP fluorescence quenching using TC-6987, 10 uM tc6987: 25.54; YFP fluorescence quenching using TC-6987, 500 uM tc6987: 21.13
